Experimental findings from IntAct's records for PubMed 19361433 are described below.

The chains are these.
B1: Probable ATP-dependent transporter SufC (Escherichia coli (strain K12)), P77499 (parent)
chain: MLSIKDLHVSVEDKAILRGLSLDVHPGEVHAIMGPNGSGKSTLSATLAGREDYEVTGGTVEFKGKDLLALSPEDRAGEGIFMAFQYPVEIPGVSNQFFLQTALNAVRSYRGQETLDRFDFQDLMEEKIALLKMPEDLLTRSVNVGFSGGEKKRNDILQMAVLEPELCILDESDSGLDIDALKVVADGVNSLRDGKRSFIIVTHYQRILDYIKPDYVHVLYQGRIVKSGDFTLVKQLEEQGYGWLTEQQ
partner: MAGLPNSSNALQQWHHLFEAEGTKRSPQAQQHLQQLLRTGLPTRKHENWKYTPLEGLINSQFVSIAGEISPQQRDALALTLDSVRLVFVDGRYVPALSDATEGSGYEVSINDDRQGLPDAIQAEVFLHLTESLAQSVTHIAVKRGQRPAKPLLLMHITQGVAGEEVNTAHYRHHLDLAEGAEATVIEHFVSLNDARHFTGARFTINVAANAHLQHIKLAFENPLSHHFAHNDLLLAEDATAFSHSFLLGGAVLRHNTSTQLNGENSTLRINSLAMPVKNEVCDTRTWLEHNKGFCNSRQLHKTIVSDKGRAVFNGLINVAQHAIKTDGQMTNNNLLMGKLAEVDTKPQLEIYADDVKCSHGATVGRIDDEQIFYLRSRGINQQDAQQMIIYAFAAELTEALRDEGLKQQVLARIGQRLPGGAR

In this assay the parent is B1. The following applies: with sufd_ecoli sufD.
Turning to MLSIKDLHVSVEDKAILRGLSLDVHPGEVHAIMGPNGSGKSTLSATLAGREDYEVTGGTVEFKGKDLLALSPEDRAGEGIFMAFQCPVEIPGVSNQFFLQTALNAVRSYRGQETLDRFDFQDLMEEKIALLKMPEDLLTRSVNVGFSGGEKKRNDILQMAVLEPELCILDESDSGLDIDALKVVADGVNSLRDGKRSFIIVTHYQRILDYIKPDYVHVLYQGRIVKSGDFTLVKQLEEQGYGWLTEQQ [Y86C], the “effect of a mutation on the interaction” value was “increasing interaction”.
